In the nanobody polyreactivity screen of Harvey et al. (2022):

Assay: yeast display, Sf9 membrane polyspecificity reagent, FACS + sequencing; frameworks hold sequencing errors
How it was run: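 Using colony PCR, genes from sorted yeast display clones were amplified, then sequenced on MiSeq at 2 × 250 and filtered by CDR length. The clones had been stained with 10% biotinylated, detergent-solubilized Sf9 membrane reagent for 1 hour at 4 °C and sorted by FACS into low and high (top ~1%) gates on anti-HA and streptavidin fluorescence. Polyreactivity labels come from the gate of origin.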

Sequence	polyreactivity (PSR sort gate)
QDQLVESGGGLVQAGGSLRLSCAASGSISVANAMGWYRQAPGKERELVAAISWRSDSTYYADSVKGRFTISRDNAKNTVYLQMNSLKPEDTAVYYCAASQYPLIWYDYWGQGTQVTVSS	low polyreactivity
QDQLVESGGGLVQAGGSLRLSCAASGSNFVPYAMGWYRQSPGKERELVAAISGSGTRTYYAYSVKGRFTISRDNSKNTVYLQMNSLKPEDTAVYYCDADWRRSVGYTMGYWGQGTQVTVSS	high polyreactivity
QDQLVESGGGLVQAGGSLRLSCAASGSNYKYYPMGWYRTAPGKERELVAAITWGGGSTYYADSVKGRFTISRDNAKNTFYLQLNSLKPEDTAVYYCAASLFPYQYDAYFSHRKAFYYWGQGTQVTVSS	high polyreactivity
QDQLVESGGGLVQAGGSLRLSCAASGSRLGGYAMGWYRQAPGKERELVAAITWNGGRTYYADSVKWRFTISRDNAKNTVYLQMNILKPEDTAVYYCAADYSKGYEYWGQVTQVTVSS	high polyreactivity
QDQLVESGGGLVQAGGSLRLSCAASGSTFAFKTMGWYRQAPGKERELVAGISSNGGRTYYADSVKGRFTISRDNAKNTVYLQMNSLKPEDTAVYYCNALRRYVSVRPTKSDYWGQGTQVTVSS	high polyreactivity
QDQLVESGGGLVQAGGSLRLSCAASGSTFEVYAMGWYRQAPGKERELVAGITRGGSTNYADSVKGRFTISRDNAKNTVYLQMNSLKPEDTAVYYCAAPKYLGTDEYDYWGQGTQVTVSS	low polyreactivity
QDQLVESGGGLVQAGGSLRLSCAASGSTFGYYAMGWYRQAPGKERELVAAITSGASTNYADSVKGRFTISRDNAKNTVYLQMNSLKPEDTAVYYCAAGFQTRTPLNEFDYWGQGTQVTVSS	low polyreactivity
QDQLVESGGGLVQAGGSLRLSCAASGSTFKYYGMGWYRQAPGKERELVAAITSGGSTYDADSVKGRFTISRDNAKNTVYLQMNSLKPEDTAVYYCNTTAYSPTPYDYWGQGTQVTVSS	low polyreactivity
QDQLVESGGGLVQAGGSLRLSCAASGSTFPFYAMGWDRQAPGKERELVAAITSGGSTYADSVKGRFTISRDNAKNTVYLQMNSLKPEDTAVYYCAAVGWFADCLFSDIKGYSWGQGTPVTVSS	low polyreactivity
QDQLVESGGGLVQAGGSLRLSCAASGSTFQYYTMGWYRQAPGKERELVAAISGDGGNTYYADSVKGRFTISRDNAKNTVYLQMNRLKPEDTAVYYCNADGLILYDYWGQGTQVTVSW	low polyreactivity
QDQLVESGGGLVQAGGSLRLSCAASGSTFRHYAMGWYRQAPGQESELVAAISSRGGRTYYADSVKGRFTISRDNAKNTVYFQMNSLKPEDTAVYYCAADRFRLYVGGWWYDYWGLGTQVTVSS	high polyreactivity
QDQLVESGGGLVQAGGSLRLSCAASGSTFSFYAMGWTRQAPGKERELVAAISRSGGSTFYADSVKGRFTISRDNAKNTVYLQMNSLKPEDSAVYYCAAYGGLQSRYYYWGQGTQVTVSS	high polyreactivity
QDQLVESGGGLVQAGGSLRLSCAASGSTFSRYAMGWYRQAPGKERELVAAITSSGGSTYYADSVKGRFTISRDNAKNTVYLQMNSLKPEDTAVYYCAASYQVRYDYWGQGTQVTVSS	high polyreactivity
QDQLVESGGGLVQAGGSLRLSCAASGSTFTFYVMGWYRQAPGKERELVAAITASGGSTYYADSVKGRFTISRDNAKNTVYLQMNSLKPEDTAVYYCAARPTYYYSRTYDYWGQGTQVTVSS	low polyreactivity
QDQLVESGGGLVQAGGSLRLSCAASGSTFVYYAMGWYRQAPGKERELVAAISRTGNTYYADSVKGRFTISRDNAKNTVYLQMNSLKPEDSAVYYCAKDYWRAYGSYEYWGQGTQVTVSS	low polyreactivity
QDQLVESGGGLVQAGGSLRLSCAASGSTFYFNAMGWYRPAPGKEREFVAVIDGSGGFTYYADSVKGRFTISRDNAKNTVYLQLNILKPEDTAVYYCNADLVYNTFFYSGGDEYDYWGQGTQVNVSS	high polyreactivity
QDQLVESGGGLVQAGGSLRLSCAASGSTIWGNAMGWYRQAPGKERELVAAITSTGSTNYADSVKARFTISRDNAKNTVYLQMNSLKPEVTAVYYCATAYYHTYWPTRRYYYWGQGTQVTVSS	high polyreactivity
QDQLVESGGGLVQAGGSLRLSCAASGTFGGYAMGCYRQAPRKERELVARIRRNGGSTYYADSVKGRFTISRDNAKNTVYLQMNCLKPEDTAVYYCATYRYVYGTASYGYWGQGTQVTVSS	high polyreactivity
QDQLVESGGGLVQAGGSLRLSCAASGYTFDYNAMGWYRQAPGKEREFVAAIDWSGGNTYYADSVKGRFTISRDNAKNTVYLQMNSLKPEDTAVYYCNTVTEAVTRRYDYWGQGTQVTVSS	low polyreactivity
QDQLVESGGGLVQAGGSLRLSCAASGYTFFFYVMGWSRQAAGKERELVAAITFSVGSTYYADSVKRRFTISRDNAKNTVYLQMNSLKPEDTAVYYCAARGALYSHSYGSARYYYWGQGTQVTVSS	high polyreactivity
QDQLVESGGGLVQAGGSLRLSCAATGRIFKLYAMGWYRQAPGKERELVAAISSSGTRTYYADSVKGRFTISRDNAKNTVYLHMNSMKPEDTAVYYCAKRWPRKGNYPGSDYWGQGTQVTVSS	high polyreactivity
QDQLVESGGGLVQAGGSLRLSCAATGRIFVYYAMGWSRQAPGKERELVATISSGGSTYYADSVKGRFTISRDNAKNTVYLQMNSLKPDDTAVYYCAADNVNLYLAYYYKGDYWGQGTQVTVSS	low polyreactivity

Sequence	polyreactivity (PSR sort gate)
QDQLVESGGGLVQAGGSLRLSCAATGRTFYFYTMGWYRQAPGKERELVATAITSGGSTNYADSVKGRFTISRDNAKNTVYLQMNSLKPEDTAVYYCAATLYWGWVFSYTSFDYWGQGTQVTVSS	low polyreactivity
QDQLVESGGGLVQAGGSLRLSCAAYGRTLRRYAMGWYRQAPGKERELVAAISRSGSSTYADSVKGRFTISRDNAKNTVYLQMNSLKPEDTAVYYCNAYQPRYGYWGQGTQVTVSS	high polyreactivity
QDQLVESGGGLVQAGGSLRLSCAAYGSTFPVYTMGWYRQAPRKEREFVAAITGSGGRTYYADSVKGRFTISRDNAKNTVFLQMNSLKPEDTAVYYCNAYPKGRYAAAFPGMDYWGQGTQVTVSS	high polyreactivity
QDQLVESGGGLVQAGGSLRLSCAAYGYTFDDNAMGWFRQAPGKERELVAAINWDGASTYADSVKGRFTISRDNAKNTVYLQMNSLKPEDTAVYYCTASGKDIFNYVYQGYDYCGQGTQVTVSS	low polyreactivity
QDQLVESGGGLVQAGGSLRLSCADYGINFYSYAMGWYRQAPGKEREFVAAISTGSSTNYADSVKGRFTISRDNAKNNVYLQMISLKPEDTAVYYCAKSTAVKPYAYRESGFIYDYWGQGTQLTVSS	low polyreactivity
QDQLVESGGGLVQAGGSLRLSCAPSGRIFTTYGMGWYSQAPGKERELVAAISRSGGSTYYADSVKGRFTISRDNAKNTVYLQMNSLKPEDTAVYYCAAVPTSNSFRSSFYYWGQGTQVTVSS	high polyreactivity
QDQLVESGGGLVQAGGSLRLSCDASGSTFLVYAMGWYRQAPGKERELVAAITQIDGSTYYADSVKGRFTISRDNAKNTVYLQMNSLKPEDTAVYYCAARYFWTYEYDYWGHGTQVTVSS	low polyreactivity
QDQLVESGGGLVQAGGSLRLSCGASGGIFWKYAMGWYRQAPGKERELVAAISRSGSSTYYADSVKGRFTISRDNAKNTVYLQMNSLKPEDTAVYYCAAQPYDSNYGNSGYWGQGTQVTVSS	high polyreactivity
QDQLVESGGGLVQAGGSLRLSCSATGRIFRSYAMGWYRQAPGKERELVASITWRGSSTYYADSVKGRFTISRDNAKNTVYLQMNSRKPEDTAVYYCAKEGYLYLWRYDYWGQGTQVTVSS	high polyreactivity
QDQLVESGGGLVQAGGSLRLSFAASGSTFFTYPMGWYRQDPGKERELVAAITLNGGSTYYADSVKGRFTISRDNAKNTVYLQMISLKPEDTAVYYCAAEVPDTDYNYWGQGTQVTVSS	low polyreactivity
QDQLVESGGGLVQAGGSLRLSGAASGSTFDRYAMGWYRQAPGKEREFVAAITWGGGSTYYADSVKGRFTISRDNAKNTVYLQMNSLKPEDTAVYYCASRYGATFGYWGQGTQVTVSS	low polyreactivity
QDQLVESGGGLVQAGGSLRLTCAASGFIFYHYAMGWYRQAPGKERDLVAAINWSGGSTYYADSVKGRFTISRDNAKKTDYLQMNSLKPEDTAVYYCAAYSTAWYWPGKFDYWGQGTQVTVSS	high polyreactivity
QDQLVESGGGLVQAGGSLRLTCAASGRICTYYAMGWYRKATGKERELVASISRSGGNTYYADSVKGRFTISRDNAKNTVYLQMNSLKPEDTAVYYCAAVYSRLDYWGQGTQVTVSS	high polyreactivity
QDQLVESGGGLVQAGGSLSLSCAASGQTFYQYAMGWYRQAPGKERELVAAISKSAGSTYYADSVKGRFTISRDNAKNTVYLQMNSLKPEDTAVYYCVARVLRLRYDYWGQGTQVSVSS	high polyreactivity
QDQLVESGGGLVQAGGSLSLSCAASGSIFFRNVMGWYRQAPGKERELVAAISGSGGRTYNADSVKGRFTISRDNAKNTVYLQMNSLKPEDTAVYYCYADYWSRRDDHDYWGQGTQVSVSS	high polyreactivity
QDQLVESGGGLVQAGGSQRLSCAASGFTFRRYAMGWYRQEPGKERELVAVITTAGSTNYADSVKGRFTISRDNAKNTVYLPMNSLKPEDTAVYYCATDNGTRKGRYDYWGQGTQVTVSS	low polyreactivity
QDQLVESGGGLVQAGRSLRLSCAASGSIFTVYAMGWYRQAPGKEWELVASISTGGSTNYADSVKGRFTISRDNAKNTVYLPMISLKPEDTAVYYCAATGWAYGYGYGYWGQGTQVTVSS	low polyreactivity
QDQLVESGGGLVQAGVSLRLSCAASGSTFAYITMGRYRQAPGKERELVAAISWRGTRTYYADSVKGRFTISRDNAKNNVYLQMNSLKPEDTAVYYCATKDGISYDYWVQGTQVTVSS	high polyreactivity
QDQLVESGGGLVQARGPLRLSCSASGFNFSNYAMGWYRHAPGKERELVAAISFTGSNTYYADSVKGRFTISRDNAKNTVYLQMNSLKPEDTAVYYWNDPLVWGVYAAQNWDEGYWGQGTQVTVSS	low polyreactivity
QDQLVESGGGLVQARVSLRLSSAASGFIFRWNTMGWYRQAPGKERELVAAISSRGGSTYYAYSVKGRFKISRDNAKNTVYLQMNSLKPEDTAVYYCNAVRGDEYWGQGTQVTVSS	high polyreactivity
QDQLVESGGGLVQEGGSLRLSCAASVSIQAPYAMGWYRQAPGKERELVAAISSRGGSTYYADSVKGRFTISRDNAKNTVYLQMNSLKPEDTAVYYCAAYVYLQVEYDYWGQGTQVTVSW	low polyreactivity
